Assay results published in paper doi:10.1101/459156.

Molecular target: Hexahistidine-tagged ALIX protein (UniProt Q8WUM4)
Assay: MST

UniProt Q8WUM4, sequence (Q8WUM4 whole entry): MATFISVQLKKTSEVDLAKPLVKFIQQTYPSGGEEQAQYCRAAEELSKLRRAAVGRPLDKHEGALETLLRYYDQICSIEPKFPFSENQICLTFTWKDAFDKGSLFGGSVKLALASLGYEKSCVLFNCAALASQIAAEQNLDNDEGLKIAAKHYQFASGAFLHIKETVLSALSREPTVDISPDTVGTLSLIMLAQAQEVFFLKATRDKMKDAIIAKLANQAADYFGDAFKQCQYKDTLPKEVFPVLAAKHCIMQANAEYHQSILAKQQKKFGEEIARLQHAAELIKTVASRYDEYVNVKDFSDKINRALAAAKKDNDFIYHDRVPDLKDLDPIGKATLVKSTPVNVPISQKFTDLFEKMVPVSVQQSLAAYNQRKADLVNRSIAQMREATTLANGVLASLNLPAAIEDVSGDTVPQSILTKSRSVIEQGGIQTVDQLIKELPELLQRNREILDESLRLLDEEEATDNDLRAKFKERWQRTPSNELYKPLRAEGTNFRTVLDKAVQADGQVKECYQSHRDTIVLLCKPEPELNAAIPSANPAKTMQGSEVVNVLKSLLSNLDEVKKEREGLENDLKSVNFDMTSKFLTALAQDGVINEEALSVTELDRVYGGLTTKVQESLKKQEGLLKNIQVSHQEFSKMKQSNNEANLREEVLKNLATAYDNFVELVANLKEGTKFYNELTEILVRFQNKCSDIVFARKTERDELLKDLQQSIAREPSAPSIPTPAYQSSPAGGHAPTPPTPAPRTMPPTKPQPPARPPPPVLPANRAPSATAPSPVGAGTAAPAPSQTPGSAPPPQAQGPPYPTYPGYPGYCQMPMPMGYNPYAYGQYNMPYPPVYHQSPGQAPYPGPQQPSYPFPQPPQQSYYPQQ

Substance | Kd
HIV-1CWT Gag late domain motif peptide | 290 nM
HIV-1BWT Gag late domain motif peptide | 32 nM
